# B1: TPR t1 (parent)
# chain: GACCAAUCUGCCCUCAGAGCUCGAGAACAUCUUCGGAUGCAGAGGAGGCAGGCUUCGGUGGCGCGAUAGCGCCAACGUCCUCAACCUCCAAUGCAUCCCACCACAUGAUGAUGCCUGAAGAGCCUUGGUUUUUUG
# Variants of: B1
# Test: polymerase ribozyme fitness, log enrichment relative to wild type (log ratio); higher = more active; in vitro selection for triplet polymerase activity
# How it was run: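 After PCR construction and transcription, each subunit's mutant library from a heterodimeric triplet polymerase ribozyme was annealed with a biotinylated primer, the partner subunit and triplets. Incubation was frozen, at −7 °C, and extended constructs were gel-excised, bound to streptavidin beads and amplified by RT-PCR, in one selection round done in triplicate. Fitness is the logarithm of a genotype's enrichment divided by that of the wild type, from inverse-variance-weighted replicate averages of Illumina-sequenced inputs and outputs. The base of the logarithm is 2, and genotypes needed ≥10 input reads and ≥1 read per output.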
row,Variant,polymerase ribozyme fitness (log ratio)
1,G36A C102U,-3.67
2,G36C C82G U126C,-2.57
3,G36C C98U U129A,-3.81
4,G36U A84C G110A,-2.43
5,G36U C101U U116C,-2.19
6,G36U G110C,-4.93
7,G36A U55G U87A,-1.87
8,G36U C53G C56A,-1.45
9,G36A U109A,-5.64
10,G36U G48U U132A G135C,-1.44
11,G36C C102A,-3.12
12,G36U G47U U59A G117C,-6.9
13,A37C C123A,-0.297
14,G36C G52A,-1.54
15,A37G A46U C56A G120A,-1.7
16,G36A G52A A66G C79G,-2.84
17,A37C U116G,-2.29
18,G36A G47C C124U,-0.979
19,G36A G42A U54G C72U A75U,-2.79
20,A37G C62A C85U,-5.14
21,G36A G57U U129C,-1.31
22,G36A U54A U112A,1.22
23,G36C A50C U59A A118U G120A,-0.713
24,A37G C49A C56A G128C,-3.61

row,Variant,polymerase ribozyme fitness (log ratio)
1,G35U C62U,-3.74
2,G36A G57A,-1.38
3,G36U C56G C123G,-5.15
4,G35U G117A,-5.15
5,G35U U130C,-5.09
6,A37C C56U,0.093
7,G36A C115U,-1.88
8,G36A G42U C88A G113U,-3.82
9,A37G C88A A91U,-4.17
10,A37C A68G U78C C82U U133G,-3.87
11,G35U U106C G122A,-6.34
12,G36U C73A C124U,0.315
13,G36A A46C C104U U116A,-3.8
14,A37G C72U,-0.261
15,G36C G63U A95C A111U,-6.67
16,G36U G48A C72U,-1.42
17,G36C A37G G60C A121U,0.419
18,G35U C49A C64U,-6.12
19,G36C C76A C79U A121U,1.44
20,A37C C72U,0.162
21,G36A A83C,-1.41
22,G36A G61C G93C G110A,-6.04
23,G36U G58U U59A A91C U112A,-2.22
24,G36C G44U A90C C102U,-5.65

row,Variant,polymerase ribozyme fitness (log ratio)
1,G36U A74G A83U C101G,-3.95
2,G36U G45U G47U C101U C104A C123G U125C,-5.24
3,G36U C53G G63C C86U U87A C101A U129G,-5.54
4,A37G C62U,-0.523
5,G36C A50U C62U C101G,-4.84
6,G36C A66C U125G,-2.72
7,A37C G51C,-4.02
8,G36A C64U,-0.622
9,G36U A74G A105U,-3.55
10,G35C G69U C79G U130A,-4.92
11,G36A G63A,-1.78
12,G36A G42A A43C C53U,-3.85
13,G36U U78C C89G C101A,-4.13
14,G35U U78A,-5.42
15,G36U U54A C72A,-0.869
16,G36A A43U,-2.94
17,G36C C49U,-1.18
18,G36U C104A,-2.99
19,A37C G44U C56G C73A C86U,-5.78
20,A37C G113C,-2.44
21,G36C C40A A74C G93C,-2.45
22,G36U G58C C89A A91C C115U,-4.15
23,A37C G52C G60A C86U,-2.95
24,G36U A50G C114A U132A,-2.9

row,Variant,polymerase ribozyme fitness (log ratio)
1,G36C U92A A118U,-3.89
2,G36C U38C G71U,-4.73
3,G36C G44C U81G A121C,-3.56
4,G36U G44A C104A,-4.47
5,A37C C53U U81G,-2.81
6,G35U C97U G120U,-5.69
7,A37C G60U U96A G110C U134A,-2.04
8,G36C G42A C89U C114A G117C,-6.44
9,G35U C101A,-4.48
10,G35U C101U,-6.26
11,G36U U59A G93C G120C,-0.759
12,G35U C123G,-2.32
13,G36C G69U G120C,0.673
14,A37G C53A G57U,0.602
15,G36A G45U G61C,-3.57
16,G35U G61A,-4.27
17,A37C G60U U81A A121C,0.858
18,G36A G61A G77A,-1.53
19,G36C U126G,-3.08
20,G36A A41U C56G G57U,-3.93
21,A37C G61U,0.0821
22,G35U U67G U109A C115U,-7.12
23,A37C G45U G51U C73U C124G,-3.87
24,A37C G44U U133G,-2.6

row,Variant,polymerase ribozyme fitness (log ratio)
1,G35U A74G,-5.03
2,A37C G44U C62A,-2.41
3,G36C C53U U55G G113C G120C,-2.92
4,G36A G52C,-2.17
5,G35C G61C U81G G117C,-5.32
6,G36C C76U C123U,-0.606
7,A37C C102A,-2.31
8,A37C C72G C123G,0.506
9,A37C A43C C53A G71C C86U A91C,-6.26
10,G36A C72A C97U A121G,1.78
11,G36U C123G U131G,0.0423
12,A37C C64U U87A G117U,-3.55
13,A37C C70G C79U A121U,0.503
14,G35U C86U C98A,-4.39
15,G36C C40A C101A C104U A121U,-1.4
16,G36A C86U,-0.488
17,A37G A43U G47U C101G,-4.64
18,G36U G44A G47A G48U G69U C82G A121C,0.343
19,G36A U92A C115U,-4.93
20,G35U G65U A121G,-5.82
21,G36U C123A,-0.268
22,G36U C123G,0.712
23,G36U C56A U132A,-1.83
24,G36C C56U C89G G117U,-7.02

row,Variant,polymerase ribozyme fitness (log ratio)
1,G36U G44A G47A G48U C82G A121C,-0.473
2,A37C G45C A111G C124U,-2.52
3,G36C G60U,-0.402
4,A37C C97U,-1.69
5,G36U C102U,-2.93
6,G36C C123U,-0.107
7,G35U U59A,-6.05
8,A37C G63U,-1.28
9,A37C C40A G52A G61C A111C G127C,-5.24
10,G36A G52C C70G,-5.49
11,G36C C70U G113C,-3.46
12,G36A U129G,-2.39
13,A37G C49G U81G,-2.07
14,G36U G63A,-1.69
15,G35U A90C,-6.98
16,A37C A43G,-2.56
17,A37G A111C C124G,0.322
18,G36U C56G C82U G113A,-2.31
19,G36C G45C A111C G122A,-2.97
20,G36A G71U C76U U125A,-4.4
21,G35U G45A,-5.37
22,G35U C72U,-4.43
23,G36C G42C G60C U130A,-3.88
24,G36C C79G C98U C115U C124U,-6.21

row,Variant,polymerase ribozyme fitness (log ratio)
1,A37C G57U A68G,-3.57
2,G36C G120U,-0.655
3,G36C G120A,-0.114
4,A37C C53G G71C C82U C101A A119U,-2
5,A37C A91C,-0.946
6,G36A C73A,-1.1
7,G36A C73U,-0.561
8,G35C U106C,-4.83
9,G36U A83U,-1.49
10,G35U U112C,-3.04
11,G36A C62U,-0.332
12,G36A C62A,-1.61
13,G36U U59C U78C C101U C123A,-1.25
14,G35U C64U,-5.09
15,A37C C49A C76G G117A C123G U125A,-1.24
16,G36A A111G,-3.41
17,G36U U38A G48U G61U G63A C97U C115U,-5.64
18,G36U C64U,-1.21
19,A37C C114G G120A C123U,-5.25
20,G36A G63U C85G,-2.03
21,G36U G69U,-0.697
22,A37C C49U G61C,-3.38
23,G36C A84U C85A C114G,-6

# Reference: the RNAGym collection of RNA variant scans (doi:10.1073/pnas.2313332121)
